For one substance, stoichiometry N results are on record in PMC5177502.

In the experiment the target is Human recombinant FGF 1 (fibroblast growth factor 1) (human) (UniProt P05230). The experiment is described as follows: native MS.

Usually stoichiometry N stands for the number of molecules, sites or subunits per partner or assembly. Regarding “Human recombinant FGF 1 (fibroblast growth factor 1) (from UniProt P05230 16-155) (natural protein)”, the stoichiometry N worked out at 2.
